KM of multiple-turnover degradation (Michaelis-Menten, anisotropy of 5-FAM), FRET amplitude of tail insertion, percent of that of the 35-residue tail and time constant of tail insertion (FRET change) data for 4 substances are collected here from doi:10.1101/359695.

Experiment [1] addresses reconstituted 26S proteasome (S. cerevisiae), all wild-type components (S. cerevisiae) (UniProt P33299).
In experiment [2] the target is reconstituted 26S proteasome with Cy3-labeled base (Rpt1-I191AzF-Cy3) (S. cerevisiae) (UniProt P33299). Briefly: FRET or BRET.

In the case of “ubiquitinated 5-FAM-titin-I27^V15P-35 (from UniProt P0CG63 1-76)”, the KM of multiple-turnover degradation (Michaelis-Menten, anisotropy of 5-FAM) in experiment [1] stood at 0.22 µM.
Take “ubiquitinated titin-I27^V15P-1 (1 AA tail), acceptor-labeled (from UniProt P0CG63 1-76)”: the FRET amplitude of tail insertion, percent of that of the 35-residue tail in experiment [2] was found to be 16%.
The same measure, in the same setting: in the case of “ubiquitinated titin-I27^V15P-11 (11 AA tail), acceptor-labeled (from UniProt P0CG63 1-76)” it was 25%.
Turning to “ubiquitinated titin-I27^V15P-35 modified with Cy5 on its unstructured tail (from UniProt P0CG63 1-76)”, the time constant of tail insertion (FRET change) in experiment [2] was 1.6 s.
